Reference: publication PMC6471057

target: HLA-E*01:01 on T2E cells (human | human (endogenous in T2)); assay: flow cytometry on cells; peptide stabilization on T2E cells (peptide 18 h at 37 °C), then 1 h with Brefeldin A 10 µg/mL, washed; HLA-E surface level (mAb 3D12) at 0, 2, 4 and 6 h at 37 °C; decrease taken as dissociation of the peptide from HLA-E

| reduction in HLA-E surface expression after 6 h [%] | DT50 (incubation time for 50% of the p:HLA-E complexes to decay, with Brefeldin A) [h] | Binder |
| --- | --- | --- |
| 1.5 | – | DVHDGKVVSTHEQ [DQ13 peptide] |
| – | < 6 | LVDSGAQVSVVHPNL [LNL15 peptide] |
| 23 | – | VMAPRTLIL [VIL9 peptide] |

target: HLA-E*01:01 on T2E cells (human | human (endogenous in T2)); assay: as above; remark: another data set of the same source

| Binder | DT50 (incubation time for 50% of the p:HLA-E complexes to decay, with Brefeldin A) [h] |
| --- | --- |
| LGHPDTLNQGEFKEL [LEL15 peptide] | > 6 |
| DVHDGKVVSTHEQ [DQ13 peptide] | > 6 |
| LVDSGAQVSVVHPNL [LNL15 peptide] | > 4 |

Results, then the binder that gave them:

| DT50 (incubation time for 50% of the p:HLA-E complexes to decay, with Brefeldin A) [h] | Binder |
| --- | --- |
| > 6 | SKGKIYPVGY [SY10 peptide] |
| > 6 | VMAPRTLIL [VIL9 peptide] |

target: HLA-E*01:01 on T2E cells (human | human (endogenous in T2)); assay: flow cytometry on cells; peptide stabilization on T2E cells (peptide 18 h at 37 °C), washed, without Brefeldin A; HLA-E surface level (mAb 3D12) at 0, 2, 4 and 6 h at 37 °C

| Binder | DT50 (without Brefeldin A) [h] |
| --- | --- |
| LGHPDTLNQGEFKEL [LEL15 peptide] | > 6 |
| DVHDGKVVSTHEQ [DQ13 peptide] | > 6 |
| LVDSGAQVSVVHPNL [LNL15 peptide] | > 6 |

Results, then the binder that gave them:

| DT50 (without Brefeldin A) [h] | Binder |
| --- | --- |
| > 6 | SKGKIYPVGY [SY10 peptide] |
| > 6 | VMAPRTLIL [VIL9 peptide] |
